The target in the first assay is Laminin 421/521. The assay is described as follows: phage display, NGS count.
Conditions: not given
Chain of Human Myelin Basic Protein (P02686 134-304): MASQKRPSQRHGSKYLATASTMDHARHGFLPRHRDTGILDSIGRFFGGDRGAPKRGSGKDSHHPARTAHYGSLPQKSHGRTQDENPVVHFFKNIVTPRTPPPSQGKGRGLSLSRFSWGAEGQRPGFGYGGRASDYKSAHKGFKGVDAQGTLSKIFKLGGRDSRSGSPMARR
IPVGERK registered a Count of 124.

Regarding CSHHKLKQC, the Count stood at 359.

MTHSAHNSQKTN: the Count was 117.

Take KALGYSLVGGEW: the Count was 134.

Molecule WGLKLPH came in with a Count of 117.

GKPDHRLVSLWR registered a Count of 309.

The molecule CMNKIQRDC displayed a Count of 131.

Regarding WDLPTLRKTKQA, the Count was found to be 114.

CSKHNHSRC showed a Count of 295.

WVAAERR: the Count is 115.

Molecule QGWFRHS showed a Count of 121.

On to APKVTNARPTQL, for which the Count was found to be 147.

Turning to GGYDLPWANWQN, the Count stood at 497.

The target of the next assay is Human Myelin Basic Protein (Homo sapiens, UniProt P02686). Nature of the assay: Phage display library screening (Example 2, Python script analysis), binding to Human Myelin Basic Protein. The arrangement: Enzo 200-606-M001 from human; purchased Enzo 200-606-M001; host or cells: human brain (tissue-derived). As to conditions: R3 Myelin Basic Protein; combined unique sequence count, Python/R script analysis. Here is the method:
Phage display library screens were used to identify peptides that bind to target proteins (including specific laminin trimers) that are expressed in human nerves, as described in Table 3. These screens were also carried out to identify peptides that could bind selectively to nerves versus muscle. Such peptides could therefore be useful for systemic in-vivo labeling of nerves during fluorescence assisted surgery. Specifically, m 13 phage libraries expressing 7 or 12 random amino acid peptides, or a cyclic peptide CX7C, on the N-terminus of the minor coat protein pIII (New England Biolabs; NEB) were processed through multiple rounds of selection for binding to target proteins expressed in nerves, or to excised human nerves, nerve extracts, or muscle, as described further below.
For screening against the specified target proteins in Table 1, including LN211, LN411, LN421, and LN521, the phage library was processed by up to 4 binding and wash cycles. For selection, phage libraries were incubated for up to 24 hours at 4° C. in 96 well plates that had been coated with one of the target proteins. Plates were then washed with PBS and phage were eluted using 0.2M glycine pH 2.0. Phage supernatants where then neutralized with Tris pH 9.0 prior to plating on TGI bacteria and LB agar plates. Colonies were counted to determine titer followed by DNA preparation of pools of phage and NextGen sequencing. After rounds of selection, phage were pooled and amplified for iterative selection. Phage that were bound at each round were sequenced. NextGen sequencing of pools after 2, 3 and 4 rounds of selection was used to isolate candidate sequences that were analyzed further to identify those that specifically bound each unique target protein.
Python Script Analysis: For all NEB sequence datasets, a python script was used to translate, trim, and filter the peptide sequences. The script translated the nucleotide sequences, translating amber codons as glutamine in peptide sequences, and then trimmed the end sequences that come from the vector. Secondly, the script combined the unique counts of trimmed peptides with identical sequences. […] Another python script was used to group peptides from different assays according to protein target (Myelin Protein Zero, Myelin Proteolipid Protein, Myelin Basic Protein, and Nidogen-2) and also combine the unique sequence counts for each peptide. An R script was written to merge the peptide sequences from different data files and determine peptides specific for each protein target but absent from different protein binding datasets. Peptide sequences were ranked by unique sequence count.
As for “AAGQRSF (R3 Myelin Basic Protein-binding peptide)”, the Count is given as 7.

Take “AGSLLSL (R3 Myelin Basic Protein-binding peptide)”: the Count was 6.

“AILTRPP (R3 Myelin Basic Protein-binding peptide)”: the Count was 7.

On to “AIPPRKL (R3 Myelin Basic Protein-binding peptide)”, for which the Count is on record as 6.

Consider “AISWKGF (R3 Myelin Basic Protein-binding peptide)”, for which the Count worked out at 6.

As for “AKFTMWV (R3 Myelin Basic Protein-binding peptide)”, the Count was 6.

Turning to “ALGTRPL (R3 Myelin Basic Protein-binding peptide)”, the Count amounted to 7.

For the molecule “ALRDTRV (R3 Myelin Basic Protein-binding peptide)”, the Count is 6.

For the molecule “ALYNQMT (R3 Myelin Basic Protein-binding peptide)”, the Count came out at 6.

On to “ANLSRSV (R3 Myelin Basic Protein-binding peptide)”, for which the Count amounted to 9.

Turning to “AQFLTIY (R3 Myelin Basic Protein-binding peptide)”, the Count is listed as 6.

Take “AQLGAFR (R3 Myelin Basic Protein-binding peptide)”: the Count is on record as 6.

Take “ARVPNPL (R3 Myelin Basic Protein-binding peptide)”: the Count is reported as 6.

Take “ASNTSKG (R3 Myelin Basic Protein-binding peptide)”: the Count stood at 7.

In the case of “AVRQTTM (R3 Myelin Basic Protein-binding peptide)”, the Count amounted to 7.

As for “CEDSDKSVC (R3 Myelin Basic Protein-binding peptide)”, the Count was found to be 7.

As for “CNRVPFKQC (R3 Myelin Basic Protein-binding peptide)”, the Count is on record as 7.

As for “CPRMNNPLC (R3 Myelin Basic Protein-binding peptide)”, the Count came out at 7.

Turning to “CTMTNQYDC (R3 Myelin Basic Protein-binding peptide)”, the Count amounted to 6.

Consider “DSQEKSV (R3 Myelin Basic Protein-binding peptide)”, for which the Count stood at 6.

On to “DSYLLSA (R3 Myelin Basic Protein-binding peptide)”, for which the Count amounted to 8.

Take “DVRIWTL (R3 Myelin Basic Protein-binding peptide)”: the Count is recorded as 6.

On to “DVVKDVI (R3 Myelin Basic Protein-binding peptide)”, for which the Count is reported as 7.

Take “ELKSLRF (R3 Myelin Basic Protein-binding peptide)”: the Count is recorded as 6.

Regarding “ESKSPRE (R3 Myelin Basic Protein-binding peptide)”, the Count turned out to be 6.

For the molecule “ESPYPHS (R3 Myelin Basic Protein-binding peptide)”, the Count came to 7.

Take “ETHYKIA (R3 Myelin Basic Protein-binding peptide)”: the Count is on record as 6.

In the case of “FDLLARK (R3 Myelin Basic Protein-binding peptide)”, the Count amounted to 6.

For the molecule “FKLPWAS (R3 Myelin Basic Protein-binding peptide)”, the Count was found to be 7.

Take “FLNQAPT (R3 Myelin Basic Protein-binding peptide)”: the Count is recorded as 7.

On to “FQLSYET (R3 Myelin Basic Protein-binding peptide)”, for which the Count is given as 6.

As to “FSAGVGK (R3 Myelin Basic Protein-binding peptide)”, the Count was 7.

Consider “FSARTNT (R3 Myelin Basic Protein-binding peptide)”, for which the Count was determined as 9.

With “FVLPNKN (R3 Myelin Basic Protein-binding peptide)”, the Count stood at 8.

On to “GEPALVT (R3 Myelin Basic Protein-binding peptide)”, for which the Count was 6.

For “GHSHYILGKPTA (R3 Myelin Basic Protein-binding peptide)”, the Count amounted to 7.

On to “GPITHAI (R3 Myelin Basic Protein-binding peptide)”, for which the Count was determined as 7.

“GPRVTPH (R3 Myelin Basic Protein-binding peptide)”: the Count came out at 6.

For “GQWWKML (R3 Myelin Basic Protein-binding peptide)”, the Count was determined as 6.

Take “GRHTDVV (R3 Myelin Basic Protein-binding peptide)”: the Count came to 6.

With “GSPYGWG (R3 Myelin Basic Protein-binding peptide)”, the Count is 6.

With “GVAEVGL (R3 Myelin Basic Protein-binding peptide)”, the Count worked out at 6.

As to “HAHWARL (R3 Myelin Basic Protein-binding peptide)”, the Count is 6.

For “HFLRPSD (R3 Myelin Basic Protein-binding peptide)”, the Count is on record as 7.

“HFTFFPI (R3 Myelin Basic Protein-binding peptide)”: the Count is given as 6.

On to “HFYGPGP (R3 Myelin Basic Protein-binding peptide)”, for which the Count was found to be 9.

As for “HLLKTHS (R3 Myelin Basic Protein-binding peptide)”, the Count was 7.

On to “HMAGVNQ (R3 Myelin Basic Protein-binding peptide)”, for which the Count is reported as 7.

Consider “HPDTLPQ (R3 Myelin Basic Protein-binding peptide)”, for which the Count is listed as 7.

Values taken from patent publication US20240207421A1, “NERVE TARGETING PEPTIDES AND METHODS OF USE” (ALUME BIOSCIENCES, INC., priority 2020, published 2024).
